In patent publication CN105483091A:

Legend:
[1] = biological target: T1, 原核表达的重组人Calcitonin蛋白 (PET28a-Calcitonin, 大肠杆菌BL21表达, Ni-NTA纯化) (human) (UniProt P01258); assay: direct ELISA, purified antibody diluted 1:200 to 1:12800 on plates coated with purified Calcitonin protein (10 μg/ml), goat anti-mouse IgG-HRP, OD450
T1 sequence (looked up): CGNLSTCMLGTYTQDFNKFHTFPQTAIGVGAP

[2] = biological target: T1, 原核表达的重组人Calcitonin蛋白 (PET28a-Calcitonin, 大肠杆菌BL21表达, Ni-NTA纯化) (human); assay: ELISA titer, as told in the summary of results

B1: 小鼠抗人Calcitonin单克隆抗体 (杂交瘤细胞株7D5, CGMCC No.6919 产生) (antibody, part only; not given: light chain variable region, V domains shown, part only)
VH: LFCQTAGVHSEVQLQQSGPELVKPGTSVKMSCKASGYTFTSYVIHWVKQKPGQGLEWIGYINPYNVGTKYNEKFRDKATLTSDKSSNTAYMELSSLTSEDFAVYYCVRS
ELISA滴度 (dilution (1:x)) [1]: > 10000 | ELISA滴度 (dilution (1:x)) [2]: > 100000
